Test results published in publication PMC8795421 (2022).

B1: Biotinylated recombinant CD97, N-terminal extracellular domain (residues 24-540) with Fc domain and avidin tag (Fc fusion)
chain: RGCARWCPQNSSCVNATACRCNPGFSSFSEIITTPTETCDDINECATPSKVSCGKFSDCWNTEGSYDCVCSPGYEPVSGAKTFKNESENTCQDVDECQQNPRLCKSYGTCVNTLGSYTCQCLPGFKFIPEDPKVCTDVNECTSGQNPCHSSTHCLNNVGSYQCRCRPGWQPIPGSPNGPNNTVCEDVDECSSGQHQCDSSTVCFNTVGSYSCRCRPGWKPRHGIPNNQKDTVCEDMTFSTWTPPPGVHSQTLSRFFDKVQDLGRDSKTSSAEVTIQNVIKLVDELMEAPGDVEALAPPVRHLIATQLLSNLEDIMRILAKSLPKGPFTYISPSNTELTLMIQERGDKNVTMGQSSARMKLNWAVAAGAEDPGPAVAGILSIQNMTTLLANASLNLHSKKQAELEEIYESSIRGVQLRRLSAVNSIFLSHNNTKELNSPILFAFSHLESSDGEAGRDPPAKDVMPGPRQELLCAFWKSDSDRGGHWATEGCQVLGSKNGSTTCQCSHLSSFAILMAHY
modifications: biotin (in situ biotinylation by BirA-ER during expression)
B2: DAF-Fc (decay accelerating factor, DAF/CD55, fused to the human IgG1 Fc region) (Fc fusion)
chain: DCGLPPDVPNAQPALEGRTSFPEDTVITYKCEESFVKIPGEKDSVICLKGSQWSDIEEFCNRSCEVPTRLNSASLKQPYITQNYFPVGTVVEYECRPGYRREPSLSPKLTCLQNLKWSTAVEFCKKKSCPNPGEIRNGQIDVPGGILFGATISFSCNTGYKLFGSTSSFCLISGSSVQWSDPLPECREIYCPAPPQIDNGIIQGERDHYGYRQSVTYACNKGFTMIGEHSIYCTVNNDEGEWSGPPPECRGKSLTSKVPPTVQKPTTVNVPTTEVSPTSQKTTTKTTTPNAQATRSTPVSRTTKHFHETTPNKGSGTTS

How the values were obtained:
Assay in all cases: BLI
[1] = target: CD97 Ab with same binding site as DAF-Fc
CD97 Ab with known Kd = target: CD97 Ab with known Kd
[2] = target: B1

Question: Which Kd [1] does the source give for B1 here?
Answer: The Kd was 0.0045 µM.

Question: And the Kd (CD97 Ab with known Kd)?
Answer: Its Kd is 7.7 µM.

Question: With B2 as the binder, how does the Kd [2] read?
Answer: Its Kd is 0.34 µM.
